Test: protease stability score; higher = more stable; yeast display proteolysis, trypsin and chymotrypsin;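 further: log10 excess protease needed over predicted unfolded state with 0 meaning unfolded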

Sequence | protease stability score
DEHFETVARLMLHALEDNNPEVLRENLDPNARVQVGDQDLTGRDTVVKVAHRLLTEIRIHIQIDSVRNQGDTVEFDAKFRANVNGRPYSVKVVIVYVVRNGRAVHIQVRMDPDFLRKLRK | 0.938
DEHHAAKRLMDNLLQAMRTGDTDTLKKLADPNVRIDVGDKTYHGREQFLQWMKELVKHVDSVHVDIKRFTVDGNNATIDAEARRDVNGNDHSEKVSVVAEVSGDKMHLKEIQYR | 1.04
DEHHEARKMIKHYFELLNQGNFEEAAKLFDEDAKVHVGDRTVNGREQIHDWFTRMRKQIDEFTVRLTKVEVSNGHVRVDFYYTKNHNGKSKSNSVDMIFQNNNGRIRAKSMQEK | -0.085
DEHHRKEFEDMLRVEQHGNEEQLKRYMDPNARFRYGDKKVHGREEVVRQISKRRHKLRMQYDTWDIKVKGDKITADLKYVEHQNGQPEDVRVNVSIRFHNGKLVEAHRERDK | -0.001
DEHHTQEARKFLENQQTGNETELQKYADPNASAQIGDKRVHGMEKFAHTIRKEVDELRMTIHDVRFDANGEKVIVHVDVQYDHNGRPERATMVVLFKHNNGKATEITARYDK | 0.411
DEHIAKDLHRLAETGNWQELVEQADKDAKAKVGDKTYHGREDLQTLNRQWNEHVDHENLERVTLNPDHLVILFKMQVNGKDFAANVRIRRHNGRVEHIQVDARDDEQKKILHELLS | 0.657
DEHIDHMYKEILRLLETGNSEEAQKLLDPNVKVVVGDKRYHGREDYARDMVRRIKEMDVQRDFDHVSVHNGKVDADAKQTTNSNGRPSSNTVRITIVQHNGRIHMIKIDSRQ | 0.041
DEHIEEVATKHLKAQHTNDPKQFRDLADKDVEVEVGDKNIHGREQNANEQKRRRDEWEFEMKIDHISAHDGRAILRVKINYVVNGKPINVDAVIRLHAHNGTIKELSVQVDPDQMREVKS | 1
DEHIQKQFQKILEAINQNNPEQFRRLVDKHAQITIGDEVVHGRDDAVRTLEKKMREMKVEIEVDSVNVQGEKLTATLKVELDINGKPNTDTVVVQMRAENGKLKSAHYRVDPTTRRKVKS | -0.179
DEHKAHRRAQELVEVMKQGDFKRWQEMADPNADVHYGDKRVHGMNEAADVMRQIRNDADHIRVKTYEAKGERIHIDFRVSFNGKQITFDLVVEIRNGTIKTAQFDPDAIRHLES | 0.5
DEHKEAEELARQLQRVARHNNPDQFAHMLDKDVKIDIGDKTVHGRENARNMMTELVKDYDSLDAKVDSFDVHNGTIDIKMTFSFNHNGKTTTTSVEFRARKHNGHVRIVYIKYG | 0.234
DEHKEAHQFAREMNKALETGDPDRYAQLADPNVKVDIGDKTYKGREDMSQYIEDLLTDADHVSMNIRSIDVQGEKVSLDFEVSNDSNGQQTRRKVKVTAERQGDKLVIVSIKVS | 0.184
DEHKEASEYIEQAEENMRDNNFRRMMQNADENVKLKYGDKELEGREQVESWANTVQSRADHFEIRVESMTVTGDHISIVLSHIVRHDGRRVKQKIIIIFKVHNGRARIEHIEFK | 0.044
DEHKEREIAERYAQNLTHGNPTEIARQFDPNVKMTVGDKELQGREQVEEALHNFRERVDHHSYDTFTVSNGRVNISAQANVDGKNVKVDVRVVVNNGRVKDVKINPEQWKHVQG | -0.234
DEHKHAEQHVKELIDALETGDPEKVRKNADEDVSAVYGDTTLQGTDQVVKAVHDIRNRYDSVRVEIKTVHIQNGRVVVTATVVLNQNGKNDTVSANIQLKVDNGRFKLVHDQLG | 0.739
DEHKIAKKLADTVMSLMKTGNFDQLAKQADPNVKIEIGDTTIHGREELVKTQKRLNDQIDHVDVRVNKVQMHGDKVNIDMDFVINVNGKNERRKLTVRAKVHNGRAIITEIRYG | 1.01
DEHKIATKQMEEFTEAMKRGDEDRMKSNADENVRIEVGDKEVHGQNQFKQTVANILKRVDHIRIKLRDWRNHNGRVDLVYQVNFDHNGRHKNDKYTVRMRIQGDKAKIEHVKAP | 0.349
DEHKLKEFATRIMEAWEQGDPRKLEELMDPNARYIVGDKTLHGREEAKKRMEEFRKNVDHVEFTSVRAQNGHISITFVANVNGERETRVVDIKVDNGRVKNMDIKHK | 0.7
DEHKLQQVFEKFLKAFNTGDRDLARKLMDPNVKLDVGDKTYHGREQAMRWMHQVRQKADHIQVQSMESSGNKATVDIVIEHNGKSTSEVIRLEVENGHFRHVRKDSP | 0.091
DEHKQIREFQKKQQKWWERGNWEELDKMFPPDARMSIGDTTVHGRESIRKTLKDLVDSADSVSVEFKHFKFHNGRAHVDAVLSVDVNGKKVDVKFNANLQVHNGTLFVDEVVRK | 0.118
DEHKQQERAEDAVRVMQKGDERRFHEQLDENVRVTIGDREVHGRENAVEMFQEWVKRADHIRVDKLEVSNGVVNAHFEVEHNGQTRHQVMVVTYHNGEIQHMTIDRG | 0.741
DEHKVKEAAERFVRMLEHNDPDTLSKLFDPNVTMQVGDKEYQGRETLMRLVKELKKRVDHIEVKQVHASNGRVNVRMTIQFNGKRFEFTMHIVLHDGRVDTLSLDVRNEEEKRRVDS | 1.31
DEHKVKEIEDIVRNNDFLKLANMADENARVRYGDKDFHGRERIKTQAQRFETKFDHAEIKSLDVRGNEISVDMVAVFNGRSVRFRMILVVKNGQIKMMEFRATSEKEETKLKEALS | 1.25
DEHKYRKLAEQINKALEDGDSREMMRLMDKDVKARYGDKTVHGRDDARKLFEDRQDHVDKIQVDDYRVDGDDITVVMTYNHNGRTTVQVLVFRLRNGRIKSASVHSQ | 0.998
DEHLFKRLVDIIKHGNFEELARQADENARVVVGDRTVKGRNEVEELMQRLRQKIDHVQIDHWSRHGDTVTISFVANVNGRRLEFTLMAAFDNGRIHEVVFHSTNEEVTKIMKEILS | 1.93
